We go through 1 substance from PMC6755802.

This assay deals with IL-2 binary complex stapler scFv, recombinantly expressed (human). Description: SPR; biotinylated scFv immobilised on Biacore SA chip at low density; analytes flowed 60 s; complexes pre-incubated 30 min at room temperature; 25 °C; HBS-P+ with 0.2% BSA; KD from equilibrium titration, 1:1 model; in Fig. 1D all proteins at 60 μM. (In general: Surface plasmon resonance follows binding to a sensor surface in real time, without labels.)

As usually defined, the Kd is the free concentration of one partner at which half of the binding sites on the other are occupied at equilibrium, for simple one-to-one binding.

Consider “Super-2/IL-2Rβ binary complex (from UniProt P60568 21-153; P14784 27-240)”, for which the Kd was 210 nM.
